According to patent publication US10428140B2, “Anti-EphA4 antibody” (EISAI R&D MANAGEMENT CO., LTD., priority 2015, dated 2019):
Residue numbers refer to the chain shown, from its start.

B1: 69 (antibody, V domains shown)
VH: QIQLVQSGSELKKPGASVKVSCKASGYTFTDYSMHWVRQAPGQGLKWMGWINTETGEPTYADDFKGRFVFSLDTSVSTAYLQISSLKAEDTAVYYCARIPLYYYGSRYWYFDVWGQGTTVTVSS
VL: DIQMTQSPSSLSASVGDRVTITCRASENIYRNLAWYQQKPGKAPKLLVYAATNLADGVPSRFSGSGSGTDYTLTISSLQPEDFATYYCQHFWGTPWTFGQGTKVEIK
modifications: synthetic humanized antibody heavy chain variable region sequence; synthetic humanized antibody light chain variable region sequence
B2: 82 (antibody, V domains shown)
VL: B1 VL with V48L, P80S
VH: B1 VH with I2V, D62Q, D63G, K65T
modifications: constant regions without entry; synthetic humanized antibody light chain variable region sequence; synthetic humanized antibody heavy chain variable region sequence
B3: 81 (antibody, V domains shown)
VL: B1 VL with V48L, P80S
VH: B1 VH with I2V, K46E, D62Q, D63G, K65T
modifications: constant regions without entry; synthetic humanized antibody light chain variable region sequence; synthetic humanized antibody heavy chain variable region sequence
B4: antibody A: mouse anti-EphA4 monoclonal antibody, IgG1/κ; heavy chain variable region SEQ ID NO: 11, light chain variable region SEQ ID NO: 13 (antibody, listed as Mus musculus, V domains shown)
VH: QIQLVQSGPELKKPGETVKISCKASGYTFTDYSMHWVKQAPGKGLKWMGWINTETGEPTYADDFKGRFAFSLETSASTAYLQINNLKNEDTATYFCARIPLYYYGSRYWYFDVWGAGTTVTVSS
VL: DIQMTQSPASLSVSVGETVTITCRASENIYRNLAWYQQKQGKSPQLLVYAATNLADGVPSRFSGSGSGTQYSLKINSLQSEDFGSYYCQHFWGTPWTFGGGTKLEIK
B5: 156 (antibody, V domains shown)
VH: B1 VH with D62Q, D63G, K65T
VL: B1 VL with K45Q, V48L
modifications: synthetic humanized antibody heavy chain variable region sequence; synthetic humanized antibody light chain variable region sequence
B6: 136 (antibody, V domains shown)
VH: B1 VH with I2V
VL: EIVMTQSPATLSVSPGERATLSCRASENIYRNLAWYQQKPGQSPRLLIYAATNLADGIPARFSGSGSGTEYTLTISSLQSEDFAVYYCQHFWGTPWTFGQGTKVEIK
modifications: synthetic humanized antibody heavy chain variable region sequence; synthetic humanized antibody light chain variable region sequence

Molecular target: T1, human EphA4 (Homo sapiens, UniProt P54764)
T1 construct: made in house; not restated for the human SEAP-His protein
T1 sequence (P54764 20-547): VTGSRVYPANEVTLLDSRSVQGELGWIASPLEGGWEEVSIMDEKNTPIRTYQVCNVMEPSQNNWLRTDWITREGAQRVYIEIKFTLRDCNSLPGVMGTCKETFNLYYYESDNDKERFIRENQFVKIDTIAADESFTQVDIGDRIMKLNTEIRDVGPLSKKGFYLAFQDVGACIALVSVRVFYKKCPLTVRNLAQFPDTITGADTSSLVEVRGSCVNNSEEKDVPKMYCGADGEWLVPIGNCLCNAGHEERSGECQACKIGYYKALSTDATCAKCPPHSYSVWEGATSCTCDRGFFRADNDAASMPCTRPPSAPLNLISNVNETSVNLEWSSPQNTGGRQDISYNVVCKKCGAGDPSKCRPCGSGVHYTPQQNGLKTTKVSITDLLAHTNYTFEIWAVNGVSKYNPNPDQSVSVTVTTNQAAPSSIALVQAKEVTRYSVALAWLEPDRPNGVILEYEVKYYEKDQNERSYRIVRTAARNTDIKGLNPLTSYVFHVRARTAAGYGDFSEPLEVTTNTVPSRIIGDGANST
Test: Affinity of humanized antibodies by SPR (Biacore T200)
Type: binding
Details: human EphA4 extracellular region-SEAP-His; 1:1 binding model
Protocol: The binding affinity of each anti-EphA4 monoclonal humanized antibody obtained in Example 16 for human EphA4 was determined by surface plasmon resonance (SPR) using Biacore T200 (GE Healthcare). First, for the assay of antibody A, a rat anti-mouse IgG1 antibody produced with a conventional method by immunizing rat with mouse IgG1 antibody was immobilized on sensor chip CM5. The immobilization of the rat anti-mouse IgG1 antibody on sensor chip CM5 was performed by the amine coupling method using N-hydroxysuccinimide (NHS) and N-ethyl-N′-(3-dimethylaminopropyl)carbodiimide hydrochloride (EDC). Ethanolamine was used in blocking (the sensor chip and the reagents for immobilization were all manufactured by GE Healthcare). The antibody was diluted with a buffer solution for immobilization (10 mM sodium acetate, pH 4.5) and immobilized on the sensor chip according to the protocol attached to Biacore T200. For the assay of each humanized monoclonal antibody, a protein A chip (GE Healthcare, 29-1383-03) was used. Antibody A or the humanized monoclonal antibody was diluted with a running buffer solution HBS-EP (GE Healthcare), injected onto only flow cell 2 for 120 seconds, and captured (captured amount: approximately 30 to 60 RU). Subsequently, human EphA4 extracellular region-SEAP-His protein serially diluted in the range of 50, 16.7, 5.6, 1.9, and 0.6 nM using HBS-EP was sequentially added from the lower toward higher concentration sides without regeneration operation. Binding reaction curves were sequentially observed at the time of the addition (association phase, for 120 sec) and after the completion of the addition (dissociation phase, for 900 sec). After the completion of each observation, the sensor chip was regenerated by the addition of 3 M MgCl2 (for 60 sec) or 10 mM Glycine-HCl pH 1.5 (for 30 sec). The obtained binding reaction curves were subjected to fitting analysis with 1:1 binding models using software BIA evaluation attached to the system to calculate the affinity (KD=kd/ka) for human EphA4 (Table 6).

ka	kd	Molecule
340000 M⁻¹ s⁻¹	0.00037 s⁻¹	B1
290000 M⁻¹ s⁻¹	0.00046 s⁻¹	B2
340000 M⁻¹ s⁻¹	0.00054 s⁻¹	B3
420000 M⁻¹ s⁻¹	0.00025 s⁻¹	B4

Same assay, conditions: human EphA4 extracellular region-SEAP-His; KD=kd/ka

Kd	Molecule
1.1 nM	B1
1.6 nM	B2
1.6 nM	B3

Molecular target: T2, human EphA4 (binding to human Ephrin A5) (Homo sapiens, UniProt P54764)
T2 construct: made in house; not restated for the human SEAP-His protein
T2 sequence (P54764 20-547): as above
Test: Human EphA4-human ligand binding inhibition ELISA of humanized antibodies (biotinylated Ephrin A5-Fc)
Details: biotinylated human Ephrin A5-Fc 0.7 nM
Protocol: Each anti-EphA4 monoclonal humanized antibody obtained in Example 16 was evaluated for its inhibitory activity against the binding between human EphA4 and its human ligand according to the following steps. Each well of a 96-well plate (Nunc) was coated with an anti-alkaline phosphatase antibody (Thermo Fisher Scientific). After incubation overnight at 4° C., each well was blocked with 1% BlockAce (DS Pharma Biomedical) at room temperature for 1 hour. After washing with 0.05% Tween 20/PBS (Thermo Fisher Scientific) three times, the human EphA4 extracellular region-SEAP-His protein obtained by the method of Example 2 was added (final concentration: 10 nM) to each well and incubated at room temperature for 1 hour. After washing three times, a ligand and each serially diluted humanized antibody of antibody A (0, 0.003, 0.01, 0.03, 0.1, 0.3, 1, 3, 10, 30, 100, 300, 1000, and 3000 nM) were added to each well. The ligand used was biotinylated human Ephrin A5-Fc chimera (R&D Systems, final concentration: 0.7 nM). After incubation at room temperature for 1 hour and subsequent washing three times, horseradish peroxidase-labeled streptavidin (GE Healthcare) was added thereto and incubated at room temperature for 1 hour. After washing three times, a TMBZ (3,3′,5,5′-tetramethylbenzidine, Sigma-Aldrich) solution was added to each well and incubated at room temperature for 2 minutes. An equal amount of a reaction stopping solution (1N H2SO4, Wako Pure Chemical Industries) was added to each well. The absorbance at 450 nm was read using a microplate reader (PerkinElmer).

IC50	Molecule
3.1 nM	B1
4.1 nM	B2
4 nM	B3
2.5 nM	B5
2.5 nM	B6
